From the supplement of paper PMC10065799, “High-throughput profiling of sequence recognition by tyrosine kinases and SH2 domains using bacterial peptide display” (eLife, 2023)

Columns and labels:
c-Src SH2 = assay: SH2 binding enrichment of the phosphorylated peptide, bacterial display (enrichment ratio); higher = better substrate or ligand; peptides without Tyr show the background
Grb2 SH2 = Grb2 SH2 (UniProt P62993); assay: as above
SHP2-C SH2 = assay: as above
Fes = Fes (UniProt P07332); assay: phosphorylation enrichment, bacterial display (enrichment ratio); higher = better substrate or ligand; peptides without Tyr show the background
Jak2 = Jak2 (UniProt O60674); assay: as above
Hck = Hck (UniProt P08631); assay: as above
FGFR3 = FGFR3 (UniProt P22607); assay: as above
AncSZ = assay: as above
EPHB1 = EPHB1 (UniProt P54762); assay: as above
c-Abl (mouse) = assay: as above
c-Src = assay: as above
Fyn = Fyn (UniProt P06241); assay: as above
FGFR1 = FGFR1 (UniProt P11362); assay: as above
EPHB2 = EPHB2 (UniProt P29323); assay: as above
MERTK = MERTK (UniProt Q12866); assay: as above
Fer (mouse) = assay: as above
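Throughout, for SH2 binding enrichment of the phosphorylated peptide, bacterial display: peptide library displayed on the E. coli surface as eCPX fusions, selected cells deep-sequenced, score is each peptide's frequency after selection divided by its frequency in the input.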
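Throughout, for phosphorylation enrichment, bacterial display: 11-residue human phosphosite peptides and single-mutation variants displayed on the E. coli surface, counted by deep sequencing, each peptide's frequency after selection divided by its frequency in the unselected input library; frequency after pTyr selection over input frequency; kinase dosed for 20-30% of maximal phosphorylation in three min.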

Chain of EPHB2 (P29323 whole entry, looked up): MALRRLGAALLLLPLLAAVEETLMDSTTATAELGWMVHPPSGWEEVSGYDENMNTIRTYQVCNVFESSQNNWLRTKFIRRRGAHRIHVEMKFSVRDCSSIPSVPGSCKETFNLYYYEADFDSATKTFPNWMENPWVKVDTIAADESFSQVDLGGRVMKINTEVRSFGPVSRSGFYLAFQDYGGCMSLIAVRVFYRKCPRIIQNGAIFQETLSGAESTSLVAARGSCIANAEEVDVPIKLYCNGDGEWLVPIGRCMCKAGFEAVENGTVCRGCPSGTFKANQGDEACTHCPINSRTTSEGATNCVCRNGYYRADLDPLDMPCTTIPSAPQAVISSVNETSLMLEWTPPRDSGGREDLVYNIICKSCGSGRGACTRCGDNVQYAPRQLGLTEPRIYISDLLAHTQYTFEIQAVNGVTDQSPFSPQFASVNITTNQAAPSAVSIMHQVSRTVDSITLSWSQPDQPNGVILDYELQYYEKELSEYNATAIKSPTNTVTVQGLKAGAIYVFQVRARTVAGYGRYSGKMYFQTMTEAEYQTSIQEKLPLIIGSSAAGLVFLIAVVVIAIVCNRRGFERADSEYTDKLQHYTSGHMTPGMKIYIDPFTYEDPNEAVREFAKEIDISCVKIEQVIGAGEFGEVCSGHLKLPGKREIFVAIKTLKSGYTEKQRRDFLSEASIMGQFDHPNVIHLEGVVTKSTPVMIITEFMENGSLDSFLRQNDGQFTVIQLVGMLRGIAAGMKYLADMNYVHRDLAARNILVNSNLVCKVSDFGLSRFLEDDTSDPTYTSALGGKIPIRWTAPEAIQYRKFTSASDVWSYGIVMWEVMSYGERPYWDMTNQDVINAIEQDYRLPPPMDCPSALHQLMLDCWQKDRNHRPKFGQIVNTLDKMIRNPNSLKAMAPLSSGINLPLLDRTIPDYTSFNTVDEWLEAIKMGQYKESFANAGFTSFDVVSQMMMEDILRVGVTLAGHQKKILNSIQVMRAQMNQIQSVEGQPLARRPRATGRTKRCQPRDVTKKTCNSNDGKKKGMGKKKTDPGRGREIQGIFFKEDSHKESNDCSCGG
Chain of FGFR3 (P22607 whole entry, looked up): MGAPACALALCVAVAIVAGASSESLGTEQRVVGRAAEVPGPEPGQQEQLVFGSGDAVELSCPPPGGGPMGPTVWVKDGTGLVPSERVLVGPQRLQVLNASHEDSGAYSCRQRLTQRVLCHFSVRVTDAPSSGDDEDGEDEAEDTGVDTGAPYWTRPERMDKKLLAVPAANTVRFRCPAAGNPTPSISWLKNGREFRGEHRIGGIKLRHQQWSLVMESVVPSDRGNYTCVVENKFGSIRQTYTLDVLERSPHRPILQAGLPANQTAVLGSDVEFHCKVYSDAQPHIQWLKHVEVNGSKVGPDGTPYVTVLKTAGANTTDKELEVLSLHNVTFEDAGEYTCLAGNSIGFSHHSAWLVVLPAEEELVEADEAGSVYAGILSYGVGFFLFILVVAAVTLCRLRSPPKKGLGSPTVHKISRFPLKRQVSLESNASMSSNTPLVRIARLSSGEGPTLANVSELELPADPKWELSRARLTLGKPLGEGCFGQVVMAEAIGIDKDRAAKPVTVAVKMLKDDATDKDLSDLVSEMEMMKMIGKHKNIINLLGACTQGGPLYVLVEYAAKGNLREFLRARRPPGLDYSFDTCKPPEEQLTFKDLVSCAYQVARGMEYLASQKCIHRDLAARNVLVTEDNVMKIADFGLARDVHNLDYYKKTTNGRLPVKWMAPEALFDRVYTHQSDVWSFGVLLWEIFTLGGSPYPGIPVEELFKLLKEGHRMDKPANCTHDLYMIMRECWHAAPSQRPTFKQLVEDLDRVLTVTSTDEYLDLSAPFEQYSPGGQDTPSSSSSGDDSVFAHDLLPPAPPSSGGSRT
Chain of Jak2 (O60674 whole entry, looked up): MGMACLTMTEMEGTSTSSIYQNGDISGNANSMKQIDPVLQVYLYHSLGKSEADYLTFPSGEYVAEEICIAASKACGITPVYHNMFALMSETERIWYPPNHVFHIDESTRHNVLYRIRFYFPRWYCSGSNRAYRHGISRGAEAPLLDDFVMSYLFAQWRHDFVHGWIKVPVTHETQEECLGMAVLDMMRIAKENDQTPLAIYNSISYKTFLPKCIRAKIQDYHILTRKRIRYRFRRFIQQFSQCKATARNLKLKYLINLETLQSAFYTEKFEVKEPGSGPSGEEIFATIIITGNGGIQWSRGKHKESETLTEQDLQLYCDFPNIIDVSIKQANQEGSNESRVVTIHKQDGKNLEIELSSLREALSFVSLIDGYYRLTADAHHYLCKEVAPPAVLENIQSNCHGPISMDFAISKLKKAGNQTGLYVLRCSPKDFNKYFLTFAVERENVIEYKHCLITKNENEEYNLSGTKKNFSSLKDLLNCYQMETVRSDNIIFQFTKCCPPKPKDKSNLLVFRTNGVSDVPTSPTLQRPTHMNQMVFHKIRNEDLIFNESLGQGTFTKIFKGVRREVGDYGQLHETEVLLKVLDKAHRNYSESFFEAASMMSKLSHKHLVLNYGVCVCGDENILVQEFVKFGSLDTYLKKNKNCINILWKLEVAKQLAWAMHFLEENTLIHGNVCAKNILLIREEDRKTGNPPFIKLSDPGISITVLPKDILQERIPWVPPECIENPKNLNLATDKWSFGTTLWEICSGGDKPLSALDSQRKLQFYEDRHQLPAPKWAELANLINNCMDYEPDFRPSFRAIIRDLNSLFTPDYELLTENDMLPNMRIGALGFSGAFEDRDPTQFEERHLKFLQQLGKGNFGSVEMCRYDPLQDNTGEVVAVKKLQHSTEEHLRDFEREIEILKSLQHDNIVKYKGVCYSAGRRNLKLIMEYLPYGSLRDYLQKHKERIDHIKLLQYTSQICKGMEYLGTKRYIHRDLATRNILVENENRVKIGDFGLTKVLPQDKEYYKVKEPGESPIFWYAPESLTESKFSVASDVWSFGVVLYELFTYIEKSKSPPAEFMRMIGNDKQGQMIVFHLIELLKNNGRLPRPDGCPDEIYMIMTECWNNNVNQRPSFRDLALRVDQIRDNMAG
Chain of Hck (P08631 whole entry, looked up): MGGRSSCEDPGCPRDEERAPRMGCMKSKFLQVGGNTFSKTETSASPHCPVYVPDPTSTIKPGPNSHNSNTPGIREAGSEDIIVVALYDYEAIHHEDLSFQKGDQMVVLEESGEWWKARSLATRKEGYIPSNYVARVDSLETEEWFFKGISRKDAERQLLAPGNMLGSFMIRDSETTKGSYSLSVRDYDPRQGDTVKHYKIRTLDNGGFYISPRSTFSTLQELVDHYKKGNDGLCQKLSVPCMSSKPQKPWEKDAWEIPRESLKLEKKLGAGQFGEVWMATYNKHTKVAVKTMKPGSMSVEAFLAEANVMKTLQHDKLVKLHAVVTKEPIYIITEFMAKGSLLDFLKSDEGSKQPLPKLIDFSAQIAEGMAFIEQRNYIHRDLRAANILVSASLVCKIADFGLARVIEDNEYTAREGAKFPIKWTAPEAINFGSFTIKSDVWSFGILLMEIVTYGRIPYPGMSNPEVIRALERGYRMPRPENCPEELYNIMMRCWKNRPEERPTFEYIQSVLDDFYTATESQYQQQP
Chain of MERTK (Q12866 whole entry, looked up): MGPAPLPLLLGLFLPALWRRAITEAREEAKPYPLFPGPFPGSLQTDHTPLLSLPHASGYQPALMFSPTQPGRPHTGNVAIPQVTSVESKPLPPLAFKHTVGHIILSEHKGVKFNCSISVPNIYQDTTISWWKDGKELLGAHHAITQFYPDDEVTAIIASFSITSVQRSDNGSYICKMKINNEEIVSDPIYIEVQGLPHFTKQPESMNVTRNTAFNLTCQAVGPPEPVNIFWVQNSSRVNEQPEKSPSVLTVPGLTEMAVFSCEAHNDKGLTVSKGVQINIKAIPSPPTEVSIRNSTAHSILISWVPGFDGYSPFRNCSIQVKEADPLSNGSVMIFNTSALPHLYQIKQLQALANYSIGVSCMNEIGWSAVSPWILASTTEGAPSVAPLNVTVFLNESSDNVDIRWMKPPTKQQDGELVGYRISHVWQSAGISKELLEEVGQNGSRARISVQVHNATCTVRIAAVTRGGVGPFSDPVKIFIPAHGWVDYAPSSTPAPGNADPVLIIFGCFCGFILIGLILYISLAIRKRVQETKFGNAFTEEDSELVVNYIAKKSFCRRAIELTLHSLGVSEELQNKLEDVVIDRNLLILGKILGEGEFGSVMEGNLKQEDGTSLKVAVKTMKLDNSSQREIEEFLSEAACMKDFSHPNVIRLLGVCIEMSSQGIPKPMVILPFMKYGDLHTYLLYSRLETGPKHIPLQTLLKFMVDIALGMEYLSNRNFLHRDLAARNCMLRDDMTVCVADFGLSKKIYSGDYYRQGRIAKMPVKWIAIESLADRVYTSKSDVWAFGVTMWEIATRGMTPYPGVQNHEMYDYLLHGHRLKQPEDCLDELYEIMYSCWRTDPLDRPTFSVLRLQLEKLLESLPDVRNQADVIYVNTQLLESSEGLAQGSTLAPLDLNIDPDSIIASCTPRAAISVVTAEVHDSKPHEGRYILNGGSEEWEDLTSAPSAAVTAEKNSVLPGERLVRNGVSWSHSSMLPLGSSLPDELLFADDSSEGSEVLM
Chain of Fyn (P06241 whole entry, looked up): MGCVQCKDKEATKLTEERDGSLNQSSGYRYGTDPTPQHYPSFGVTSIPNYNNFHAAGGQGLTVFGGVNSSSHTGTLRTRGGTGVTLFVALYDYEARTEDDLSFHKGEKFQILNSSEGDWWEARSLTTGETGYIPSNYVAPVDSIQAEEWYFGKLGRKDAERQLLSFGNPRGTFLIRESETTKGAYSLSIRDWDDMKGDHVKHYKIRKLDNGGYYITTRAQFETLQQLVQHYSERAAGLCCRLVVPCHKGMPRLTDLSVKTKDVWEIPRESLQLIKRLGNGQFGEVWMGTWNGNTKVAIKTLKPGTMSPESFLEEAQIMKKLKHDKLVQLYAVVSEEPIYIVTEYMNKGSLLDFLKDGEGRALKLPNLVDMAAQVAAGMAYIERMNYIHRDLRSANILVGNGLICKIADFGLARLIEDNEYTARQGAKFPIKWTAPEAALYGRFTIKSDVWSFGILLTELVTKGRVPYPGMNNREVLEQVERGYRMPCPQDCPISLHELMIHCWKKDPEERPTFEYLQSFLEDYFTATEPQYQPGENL

| SH2 binding enrichment (c-Src SH2) | SH2 binding enrichment (Grb2 SH2) | SH2 binding enrichment (SHP2-C SH2) | Sequence | phosphorylation enrichment (Fes) | phosphorylation enrichment (Jak2) | phosphorylation enrichment (Hck) | phosphorylation enrichment (FGFR3) | phosphorylation enrichment (AncSZ) | phosphorylation enrichment (EPHB1) | phosphorylation enrichment (c-Abl (mouse)) | phosphorylation enrichment (c-Src) | phosphorylation enrichment (Fyn) | phosphorylation enrichment (FGFR1) | phosphorylation enrichment (EPHB2) | phosphorylation enrichment (MERTK) | phosphorylation enrichment (Fer (mouse)) |
| --- | --- | --- | --- | --- | --- | --- | --- | --- | --- | --- | --- | --- | --- | --- | --- | --- |
| 0.493 | 0.961 | 0.511 | HSVLQYVGGVM [FGGY_Y136] | 1.48 | 1.11 | 0.833 | 1.18 | 1.05 | 0.943 | 0.846 | 0.738 | 0.776 | 0.944 | 0.977 | 0.986 | 0.73 |
| 3.65 | 0.803 | 1.02 | NNPAYYVLEGV [INPPL1_Y987] | 0.997 | 4.89 | 1.11 | 13.1 | 1.15 | 0.764 | 0.711 | 1.63 | 1.65 | 15.9 | 0.69 | 9.04 | 0.525 |
| 8.18 | 0.875 | 2.48 | GACGGYCSVLG [RAB18_Y202] | 0.77 | 0.522 | 0.392 | 0.401 | 0.533 | 0.358 | 0.461 | 0.509 | 0.473 | 0.435 | 0.352 | 0.525 | 0.441 |
| 1.7 | 2.28 | 6.88 | KYVVVYFRETD [IL17RB_Y447_I451T] | 1.34 | 1.27 | 0.579 | 0.708 | 1.36 | 0.757 | 0.762 | 0.491 | 0.43 | 0.459 | 0.554 | 0.445 | 0.564 |
| 0.82 | 1.44 | 0.944 | IRKVLYANNVM [ACTA1_Y296_D294V] | 0.599 | 0.637 | 0.297 | 0.395 | 0.569 | 0.311 | 0.529 | 0.325 | 0.286 | 0.567 | 0.368 | 0.328 | 0.337 |
| 0.462 | 0.736 | 0.541 | GNLLIYTEFGN [HGD_Y166_K171N] | 1.15 | 0.997 | 3.51 | 0.903 | 1.31 | 2.71 | 2.23 | 4.74 | 5.81 | 0.726 | 1.89 | 3.75 | 0.775 |
| 1.2 | 0.959 | 1.83 | YMRGMYFRMTD [PLA2G6_Y541_K545T] | 1.16 | 1.41 | 0.578 | 0.908 | 1.21 | 0.63 | 0.771 | 0.427 | 0.434 | 0.592 | 0.566 | 0.773 | 0.481 |
| 0.782 | 1.05 | 0.81 | NTADYYDLYGG [PTPN11_Y63_G60A] | 1.47 | 3.39 | 5.89 | 15.3 | 3.44 | 14.9 | 1.13 | 5.99 | 6.09 | 16.2 | 14.7 | 3.04 | 1.59 |
| 0.735 | 0.762 | 0.841 | ISDNAYQFMLT [MYH7_Y162_YF] | 1.19 | 0.957 | 0.684 | 1.51 | 1.22 | 0.662 | 1.09 | 0.807 | 0.654 | 1.83 | 0.526 | 0.883 | 5.75 |
| 0.621 | 0.988 | 0.663 | SLNEEYTKNKT [MSH2_Y563] | 0.786 | 0.593 | 0.37 | 0.397 | 0.716 | 0.369 | 0.537 | 0.426 | 0.325 | 0.324 | 0.354 | 0.348 | 0.379 |
| 0.611 | 0.918 | 0.784 | VNFGAYINFFK [GLB1_Y488_D491Y_YF] | 1.75 | 1.87 | 0.495 | 0.963 | 1.38 | 0.586 | 1.49 | 0.717 | 0.441 | 0.663 | 0.558 | 0.57 | 0.624 |
| 1.36 | 2.41 | 1.42 | YKWAVYCIIGR [NUP93_Y391_R388W] | 1.48 | 1.08 | 1.29 | 0.751 | 1.23 | 3.37 | 0.981 | 1.18 | 1.04 | 0.527 | 1.83 | 0.953 | 0.646 |
| 5.18 | 2.51 | 0.773 | PYSSPYENSLI [EPOR_Y489_N487S] | 0.924 | 0.929 | 0.705 | 0.506 | 0.83 | 0.39 | 0.902 | 0.875 | 0.668 | 0.527 | 0.596 | 0.683 | 2.52 |
| 1.65 | 0.662 | 0.761 | PDGHEYIFVDP [PDGFRA_Y572_YF] | 1.04 | 0.73 | 0.54 | 1.99 | 2.01 | 0.644 | 0.466 | 0.495 | 0.712 | 2.86 | 0.719 | 0.311 | 0.576 |
| 0.506 | 0.766 | 0.681 | DWQQEYVLNES [TGM1_Y267_R264Q] | 1.45 | 0.957 | 0.6 | 0.996 | 2.03 | 1.42 | 0.788 | 2.73 | 0.648 | 1.11 | 0.615 | 0.427 | 0.434 |
| 0.506 | 0.891 | 0.492 | PQIVNYSPDCI [LDHB_Y128_K127N] | 0.824 | 0.254 | 1 | 0.939 | 0.415 | 0.668 | 0.216 | 0.387 | 0.457 | 0.684 | 0.451 | 0.179 | 0.83 |
| 1.18 | 1.29 | 0.674 | FQLENYCNGGG [INS_Y108_YF] | 1.41 | 2.44 | 0.619 | 0.72 | 1.34 | 0.677 | 1.76 | 0.736 | 0.878 | 0.601 | 0.458 | 0.45 | 0.364 |

| SH2 binding enrichment (c-Src SH2) | SH2 binding enrichment (Grb2 SH2) | SH2 binding enrichment (SHP2-C SH2) | Sequence | phosphorylation enrichment (Fes) | phosphorylation enrichment (Jak2) | phosphorylation enrichment (Hck) | phosphorylation enrichment (FGFR3) | phosphorylation enrichment (AncSZ) | phosphorylation enrichment (EPHB1) | phosphorylation enrichment (c-Abl (mouse)) | phosphorylation enrichment (c-Src) | phosphorylation enrichment (Fyn) | phosphorylation enrichment (FGFR1) | phosphorylation enrichment (EPHB2) | phosphorylation enrichment (MERTK) | phosphorylation enrichment (Fer (mouse)) |
| --- | --- | --- | --- | --- | --- | --- | --- | --- | --- | --- | --- | --- | --- | --- | --- | --- |
| 0.825 | 1.13 | 0.884 | KKFPDYIQIAR [SGMS2_Y59_M64R_YF] | 0.713 | 1.15 | 0.478 | 2.26 | 0.848 | 3.85 | 0.657 | 0.488 | 0.432 | 4.29 | 0.649 | 0.421 | 0.399 |
| 0.723 | 1.04 | 1.07 | GCLSKYSGVFS [TUBGCP6_Y1624_V1621L] | 1.01 | 1.19 | 0.542 | 0.565 | 0.778 | 0.52 | 0.673 | 0.509 | 0.51 | 0.425 | 0.543 | 0.46 | 0.514 |
| 0.631 | 0.603 | 0.362 | AIGCEYSEINI [SIGLEC12_Y588_Y586C] | 1.27 | 0.924 | 2.42 | 2.99 | 1.94 | 1.24 | 0.928 | 2.47 | 1.79 | 3.95 | 0.797 | 0.492 | 5.32 |
| 6.21 | 0.78 | 0.7 | RSSNTYTLMDV [ALCAM_Y298_T301M] | 0.793 | 0.309 | 0.676 | 1.17 | 1.01 | 0.633 | 0.614 | 1.58 | 1.55 | 1.26 | 0.868 | 4.15 | 1.42 |
| 0.797 | 1.23 | 1.1 | LSIWPYLQKID [MFSD8_Y63_M58L] | 1.37 | 1.43 | 0.566 | 0.85 | 1.16 | 0.929 | 0.6 | 0.686 | 0.501 | 0.584 | 0.759 | 0.6 | 0.577 |
| 0.456 | 0.782 | 0.787 | NGQALYAACQT [XDH_Y1092_V1091L] | 0.916 | 0.687 | 4.99 | 0.562 | 0.775 | 9.24 | 2.26 | 3.35 | 3.2 | 0.554 | 9.92 | 6.34 | 6.91 |
| 0.591 | 0.769 | 0.717 | GYRVCYTPDSR [PTPRF_Y451_Y450C] | 1.26 | 0.975 | 0.547 | 0.739 | 1.07 | 0.635 | 0.794 | 0.522 | 0.498 | 0.492 | 0.592 | 0.434 | 0.505 |
| 1.23 | 2.31 | 1.68 | YIIFIYAMKKK [SLCO1B1_Y645_L643F] | 0.536 | 0.545 | 0.473 | 0.507 | 0.602 | 0.273 | 0.465 | 0.287 | 0.343 | 0.655 | 0.239 | 0.849 | 0.433 |
| 0.275 | 0.712 | 0.545 | YFCRWYRNQKS [EREG_Y144_R147Q] | 0.48 | 0.371 | 0.372 | 0.548 | 0.565 | 0.481 | 0.444 | 0.477 | 0.447 | 0.473 | 0.385 | 0.523 | 0.454 |
| 0.499 | 0.769 | 0.716 | KEEEDYKEENN [BMS1_Y651] | 1.06 | 1 | 0.516 | 0.561 | 1.15 | 0.532 | 0.75 | 0.453 | 0.475 | 0.468 | 0.554 | 0.422 | 0.55 |
| 0.547 | 0.729 | 0.564 | VTAALYGCLYE [BTD_Y536_R538C] | 1.43 | 1.24 | 4.01 | 0.825 | 1.34 | 1.34 | 0.954 | 4.26 | 5.14 | 0.558 | 1.47 | 2.11 | 2.67 |
| 0.557 | 1.03 | 0.691 | VLTPKYRGGGG [HBA1_Y141_S139P] | 0.464 | 0.335 | 0.32 | 0.413 | 0.498 | 0.328 | 0.421 | 0.34 | 0.363 | 0.348 | 0.372 | 0.35 | 0.364 |
| 0.542 | 0.9 | 0.626 | KLIETYFSKNF [PLP1_Y50_YF] | 0.99 | 0.87 | 0.519 | 0.589 | 0.942 | 0.474 | 0.668 | 0.558 | 0.474 | 0.449 | 0.452 | 0.427 | 0.4 |
| 0.817 | 0.769 | 0.819 | YGEYRYRSVIK [CFTR_Y517_D513G] | 0.826 | 0.599 | 3.67 | 0.644 | 0.714 | 0.458 | 0.745 | 4.36 | 7.2 | 0.454 | 0.462 | 0.463 | 0.49 |
| 0.65 | 0.865 | 0.8 | PRPACYPSTVS [CACNA1C_Y1832_G1831C] | 0.792 | 0.721 | 0.49 | 0.598 | 0.554 | 0.575 | 0.437 | 0.484 | 0.51 | 0.49 | 0.435 | 0.356 | 0.381 |
| 0.51 | 0.696 | 0.769 | GRDVIYKGFED [NFU1_Y194_G190R] | 1 | 0.767 | 0.96 | 0.539 | 0.77 | 0.528 | 0.561 | 1.97 | 2.94 | 0.468 | 0.401 | 0.391 | 0.426 |
